This is an account of results in patent US20140274782A1, “AFFINITY REAGENTS AND METHODS FOR DETECTION, PURIFICATION, AND PROTEOMIC ANALYSIS OF METHYLATED PROTEINS” (The Board of Trustees of the Leland Stanford Junior …, priority 2013, published 2014).

In experiment [1] the test system is 3×MBT domain of L3MBTL1. Kind of experiment: Triple SILAC pull-down, 3xMBT/3xMBTD355N ratio (cytoplasmic, nuclear and chromatin fractions of 293T cells).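 For all read-outs here: proteins quantified with MaxQuant, requiring at least two unique peptides and quantification in both label directions, normalized to the mean of proteins from a digested loading control.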 The experiment is classed as binding, human. The note with it: for 3xMBT/D355N UNC Heavy / 3xMBT/D355N UNC Light: SILAC ratio, pull-down 3xMBT vs 3xMBTD355N; for 3xMBT/D355N UNC Heavy: experiment with UNC0638 in heavy SILAC media; for 3xMBT/D355N UNC Light: experiment with UNC0638 in light SILAC media.

Experiment [2] has as its system 3×MBT domain of L3MBTL1. Kind of experiment: SILAC proteomic pull-down 3×MBT vs 3×MBTD355N from 293T nuclear extract, LC-MS/MS. Type of experiment: binding, human. The note with it: for Protein Ratio 3xMBT/D355N: SILAC ratio, 293T nuclear extract pull-down, * = protein identified in only one labeling experiment. The procedure: Protein pull-downs were performed as described above using 600 μg of nuclear extract prepared with isotopic labels as indicated. After eluting with glutathione, 3×MBT domain was removed by dialysis into high salt and rebinding to GSH-sepharose. Bound proteins were separated by SDS-PAGE and analyzed by in-gel tryptic digest followed by LC-MS/MS. Peptides were identified using MaxQuant version 1.2.2.5 (Cox and Mann (2008) Nat. Biotechnol. 26, 1367-1372) and candidate methylated peptides were verified by manual inspection.
For stable isotope labeling by amino acids in cell culture (SILAC) experiments HEK 293T cells were grown for at least six doublings in DMEM for SILAC supplemented with 10% dialyzed fetal bovine serum (FBS), 230 mg/L L-proline and either 100 mg/L each of L-lysine and L-arginine (“light” medium), D4-L-lysine and ^13C6-L-arginine (“medium” media), or ^13C6^15N2-L-lysine and ^13C6^15N4-L-arginine (Thermo Scientific). Heavy methyl labeling used DMEM without L-Methionine or L-Cysteine supplemented with D3^13C-L-Methionine (Sigma), L-Cysteine (Sigma) and 10% dialyzed FBS.
600 μg of nuclear extract was incubated overnight rotating at 4° C. with 20 μl packed 3×MBT or 3×MBTD355N beads in a total volume of 250 μL with binding buffer. Supernatant was removed and saved for use as a loading control. Beads were washed 4×5 minutes with 0.5 mL binding buffer. Protein was eluted by incubating in 20 μL elution buffer (10 mg/mL glutathione in 50 mM Tris pH 8.0) rotating at 4° C. for four hours. Elutions from 3×MBT and 3×MBTD355N were combined and dialyzed overnight at 4° C. against 10,000× volume of dissociation buffer (50 mM Tris pH 7.5, 750 mM NaCl) in a 0.1 mL Slide-A-Lyzer MINI Dialysis Device with 3.5K molecular weight cutoff (Thermo Scientific). 80 μL of GSH-Sepharose was prepared by washing briefly three times with 0.5 mL binding buffer. Dialyzed proteins were added to the GSH-Sepharose and incubated 4 hours rotating at 4° C. to deplete the GST-fusion domains. Supernatant was transferred to a fresh 1.5 mL tube. Proteins were separated by SDS-PAGE on a 10% polyacrylamide gel and stained using SilverQuest Silver Staining Kit (Life Technologies). Lanes were excised, residual 3×MBT band was removed, and gel was diced into 0.5 mm cubes. Gel pieces were destained and processed by in-gel digestion (Carlson et al. (2011) Science Signaling 4) with sequencing grade trypsin (Promega) and the peptide sample was dried completely in a vacuum centrifuge. To prepare a loading control, 2 μL each of light and heavy nuclear extract were combined, 6 μL of 8M urea was added, proteins were denatured by adding 2 μL of 100 mM dithiothreitol in digest buffer (50 mM ammonium bicarbonate) and heating to 60° C. for 1 hour, cysteine was alkylated by adding 2.2 μL 100 mg/mL iodoacetamide in digest buffer and incubating 1 hour at room temperature in darkness, and proteins were digested by adding 80 μL trypsin (Promega) at 12.5 ng/μL in digest buffer and incubating overnight at room temperature in darkness. Digestion was stopped by adding 10 μL of 10% formic acid.
Each experiment consisted of two sets of pull-downs: “forward” labeling with 3×MBT incubated with light nuclear extract and 3×MBTD355N with medium extract, and a second “reverse” labeling experiment with the label conditions swapped. Proteins were included in the results if they were quantified in both labeling directions. To determine reproducibility the entire experiment including the label swap was duplicated using independent protein preparations and a mass spectrometer at another institution.
For 3×MBT pull-down experiment #1 the gel lane was processed and peptides were loaded off-line onto a first dimension trap column (Waters Xbridge, C18, 10 μm particle size, 100 Å pore size, 5 cm packing length, 150 μm column i.d.). […]

B1: DDX1: protein with methylated lysine identified in 3xMBT pull-down (protein, UniProt Q92499 1-740, looked up)
ATP-dependent RNA helicase …: MAAFSEMGVMPEIAQAVEEMDWLLPTDIQAESIPLILGGGDVLMAAETGSGKTGAFSIPVIQIVYETLKDQQEGKKGKTTIKTGASVLNKWQMNPYDRGSAFAIGSDGLCCQSREVKEWHGCRATKGLMKGKHYYEVSCHDQGLCRVGWSTMQASLDLGTDKFGFGFGGTGKKSHNKQFDNYGEEFTMHDTIGCYLDIDKGHVKFSKNGKDLGLAFEIPPHMKNQALFPACVLKNAELKFNFGEEEFKFPPKDGFVALSKAPDGYIVKSQHSGNAQVTQTKFLPNAPKALIVEPSRELAEQTLNNIKQFKKYIDNPKLRELLIIGGVAARDQLSVLENGVDIVVGTPGRLDDLVSTGKLNLSQVRFLVLDEADGLLSQGYSDFINRMHNQIPQVTSDGKRLQVIVCSATLHSFDVKKLSEKIMHFPTWVDLKGEDSVPDTVHHVVVPVNPKTDRLWERLGKSHIRTDDVHAKDNTRPGANSPEMWSEAIKILKGEYAVRAIKEHKMDQAIIFCRTKIDCDNLEQYFIQQGGGPDKKGHQFSCVCLHGDRKPHERKQNLERFKKGDVRFLICTDVAARGIDIHGVPYVINVTLPDEKQNYVHRIGRVGRAERMGLAISLVATEKEKVWYHVCSSRGKGCYNTRLKEDGGCTIWYNEMQLLSEIEEHLNCTISQVEPDIKVPVDEFDGKVTYGQKRAAGGGSYKGHVDILAPTVQELAALEKEAQTSFLHLGYLPNQLFRTF
For the molecule B1, in the experiment on 3×MBT domain of L3MBTL1 [1], the “3xMBT/D355N UNC Heavy” value came to 3.07 log base 2 and the “3xMBT/D355N UNC Light” value was 3.64 log base 2. In addition, the “Protein Ratio 3xMBT/D355N” value in the experiment with 3×MBT domain of L3MBTL1 [2] was found to be 11.2.

B2: eEF1A1: protein with methylated lysine identified in 3xMBT pull-down (protein, UniProt P68104 2-462, looked up)
Elongation factor 1-alpha 1: GKEKTHINIVVIGHVDSGKSTTTGHLIYKCGGIDKRTIEKFEKEAAEMGKGSFKYAWVLDKLKAERERGITIDISLWKFETSKYYVTIIDAPGHRDFIKNMITGTSQADCAVLIVAAGVGEFEAGISKNGQTREHALLAYTLGVKQLIVGVNKMDSTEPPYSQKRYEEIVKEVSTYIKKIGYNPDTVAFVPISGWNGDNMLEPSANMPWFKGWKVTRKDGNASGTTLLEALDCILPPTRPTDKPLRLPLQDVYKIGGIGTVPVGRVETGVLKPGMVVTFAPVNVTTEVKSVEMHHEALSEALPGDNVGFNVKNVSVKDVRRGNVAGDSKNDPPMEAAGFTAQVIILNHPGQISAGYAPVLDCHTAHIACKFAELKEKIDRRSGKKLEDGPKFLKSGDAAIVDMVPGKPMCVESFSDYPPLGRFAVRDMRQTVAVGVIKAVDKKAAGAGKVTKSAQKAQKAK
modifications: methylated lysine
notes: protein with methylated lysine identified in 3xMBT pull-down
For the molecule B2, in the experiment with 3×MBT domain of L3MBTL1 [1], the “3xMBT/D355N UNC Heavy” value came out at 3.08 log base 2 and the “3xMBT/D355N UNC Light” value is on record as 2.87 log base 2. Also, the “Protein Ratio 3xMBT/D355N” value in the experiment with 3×MBT domain of L3MBTL1 [2] turned out to be 5.2.

B3: 3×MBT: three MBT repeats of L3MBTL1 (amino acids 190-530 of accession NP—056293.4), expressed as GST or Flag fusion; methyl-lysine affinity reagent (protein)
chain: EEWSSSQPATGEKKECWSWESYLEEQKAITAPVSLFQDSQAVTHNKNGFKLGMKLEGIDPQHPSMYFILTVAEVCGYRLRLHFDGYSECHDFWVNANSPDIHPAGWFEKTGHKLQPPKGYKEEEFSWSQYLRSTRAQAAPKHLFVSQSHSPPPLGFQVGMKLEAVDRMNPSLVCVASVTDVVDSRFLVHFDNWDDTYDYWCDPSSPYIHPVGWCQKQGKPLTPPQDYPDPDNFCWEKYLEETGASAVPTWAFKVRPPHSFLVNMKLEAVDRRNPALIRVASVEDVEDHRIKIHFDGWSHGYDFWIDADHPDIHPAGWCSKTGHPLQPPLGPREPSSASPGG
modifications: left off: a dimerising Fc or GST
B3: in the experiment on 3×MBT domain of L3MBTL1 [1] (two biological replicates), the “number of proteins enriched by 3×MBT compared to 3×MBTD355N” value is 370. The “amount of protein captured from nucleoplasmic extract” value in the experiment on 3×MBT domain of L3MBTL1 [2] (293T cells, silver stain, relative to the other domain) is recorded as “captured more proteins”. For the same molecule, in the experiment with 3×MBT domain of L3MBTL1 [2] (SILAC), the “number of the 544 identified proteins enriched at 2-fold versus the other domain” value turned out to be 313 and the “percentage of the 544 identified proteins enriched at 2-fold versus the other domain” value stood at 57.5%.

B4: GTF2I: protein with methylated lysine identified in 3xMBT pull-down (protein, UniProt P78347 2-998, looked up)
General transcription factor …: AQVAMSTLPVEDEESSESRMVVTFLMSALESMCKELAKSKAEVACIAVYETDVFVVGTERGRAFVNTRKDFQKDFVKYCVEEEEKAAEMHKMKSTTQANRMSVDAVEIETLRKTVEDYFCFCYGKALGKSTVVPVPYEKMLRDQSAVVVQGLPEGVAFKHPENYDLATLKWILENKAGISFIIKRPFLEPKKHVGGRVMVTDADRSILSPGGSCGPIKVKTEPTEDSGISLEMAAVTVKEESEDPDYYQYNIQAGPSETDDVDEKQPLSKPLQGSHHSSEGNEGTEMEVPAEDSTQHVPSETSEDPEVEVTIEDDDYSPPSKRPKANELPQPPVPEPANAGKRKVREFNFEKWNARITDLRKQVEELFERKYAQAIKAKGPVTIPYPLFQSHVEDLYVEGLPEGIPFRRPSTYGIPRLERILLAKERIRFVIKKHELLNSTREDLQLDKPASGVKEEWYARITKLRKMVDQLFCKKFAEALGSTEAKAVPYQKFEAHPNDLYVEGLPENIPFRSPSWYGIPRLEKIIQVGNRIKFVIKRPELLTHSTTEVTQPRTNTPVKEDWNVRITKLRKQVEEIFNLKFAQALGLTEAVKVPYPVFESNPEFLYVEGLPEGIPFRSPTWFGIPRLERIVRGSNKIKFVVKKPELVISYLPPGMASKINTKALQSPKRPRSPGSNSKVPEIEVTVEGPNNNNPQTSAVRTPTQTNGSNVPFKPRGREFSFEAWNAKITDLKQKVENLFNEKCGEALGLKQAVKVPFALFESFPEDFYVEGLPEGVPFRRPSTFGIPRLEKILRNKAKIKFIIKKPEMFETAIKESTSSKSPPRKINSSPNVNTTASGVEDLNIIQVTIPDDDNERLSKVEKARQLREQVNDLFSRKFGEAIGMGFPVKVPYRKITINPGCVVVDGMPPGVSFKAPSYLEISSMRRILDSAEFIKFTVIRPFPGLVINNQLVDQSESEGPVIQESAEPSQLEVPATEEIKETDGSSQIKQEPDPTW
modifications: methylated lysine
notes: as for B2
As to B4, in the experiment with 3×MBT domain of L3MBTL1 [1], the “3xMBT/D355N UNC Heavy” value stood at 3.02 log base 2 and the “3xMBT/D355N UNC Light” value is on record as 2.75 log base 2. Moreover, in the experiment with 3×MBT domain of L3MBTL1 [2], the “Protein Ratio 3xMBT/D355N” value turned out to be 1.5.

B5: CMAS: protein with methylated lysine identified in 3xMBT pull-down (protein, UniProt Q8NFW8 1-434, looked up)
N-acylneuraminate …: MDSVEKGAATSVSNPRGRPSRGRPPKLQRNSRGGQGRGVEKPPHLAALILARGGSKGIPLKNIKHLAGVPLIGWVLRAALDSGAFQSVWVSTDHDEIENVAKQFGAQVHRRSSEVSKDSSTSLDAIIEFLNYHNEVDIVGNIQATSPCLHPTDLQKVAEMIREEGYDSVFSVVRRHQFRWSEIQKGVREVTEPLNLNPAKRPRRQDWDGELYENGSFYFAKRHLIEMGYLQGGKMAYYEMRAEHSVDIDVDIDWPIAEQRVLRYGYFGKEKLKEIKLLVCNIDGCLTNGHIYVSGDQKEIISYDVKDAIGISLLKKSGIEVRLISERACSKQTLSSLKLDCKMEVSVSDKLAVVDEWRKEMGLCWKEVAYLGNEVSDEECLKRVGLSGAPADACSTAQKAVGYICKCNGGRGAIREFAEHICLLMEKVNNSCQK
Consider B5, for which, in the experiment on 3×MBT domain of L3MBTL1 [1], the “3xMBT/D355N UNC Heavy” value worked out at 2.71 log base 2 and the “3xMBT/D355N UNC Light” value amounted to 2.86 log base 2. Moreover, in the experiment on 3×MBT domain of L3MBTL1 [2], the “Protein Ratio 3xMBT/D355N” value is 4.2.
